± gives the uncertainty stated by the source.
Test: self-splicing fitness, log relative to wild type (ln ratio); higher = more splicing; Tetrahymena group I intron in knt gene, E. coli kanamycin selection, DiMSum; sequences stand for … in CUCUCU…GGAGGGAAAAGUUAUCAGGCAUGCACCUGGUAGCUAGUCUUUAAACCAAUAGAUUGCAUCGGUUUAAAAGGCAAGACCGUCAAAUUGCGGGAAAGGGGUCAACAGCCGUUCAGUACCAAGUCUCAGGGGAAACUUUGAGAUGGCCUUGCAAAGGGUAUGGUAAUAAGCUGACGGACAUGGUCCUAACCACGCAGCCAAGUCCUAAGUCAACAGAUCUUCUGUUGAUAUGGAUGCAGUUCACAGACUAAAUGUCGGUCGGGGAAGAUGUAUUCUUCUCAUAAGAUAUAGUCGGACCUCUCCUUAAUGGGAGCUAGCGGAUGAAGUGAUGCAACACUGGAGCCGCUGGGAACUAAUUUGUAUGCGAAAGUAUAUUGAUUAGUUUUGGAGUACUCGUGGUCG
Procedure, shortened: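 Six replicate transformations of E. coli BL21(DE3) with a pET-22b(+) library were grown overnight at 37°C or 30°C. The library randomised all eight P1ex-region intron nucleotides, the intron lying in the knt kanamycin-resistance gene, and plates were LB agar with or without 25 μg/mL kanamycin plus 100 μg/mL carbenicillin, 50 μM IPTG and 0.2% rhamnose. Pooled colonies were amplicon-sequenced on an Illumina HiSeq 2500, and fitness is the DiMSum error-weighted combination of wild-type-normalised replicate fold changes, kanamycin versus none.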

Sequence | self-splicing fitness (ln) (30 °C) | self-splicing fitness (ln) (37 °C)
CUUUAGCAAUAUUACGUCUC | -2.64 ± 0.24 | -3.21 ± 0.3
AAUCAGCAAUAUUACGUGCG | -0.392 ± 0.058 | -0.216 ± 0.08
CGAUAGCAAUAUUACGUGGU | -3.97 ± 0.16 | -1.94 ± 0.12
CUGAAGCAAUAUUACGCGUG | -0.382 ± 0.041 | 0.0264 ± 0.063
AGUAAGCAAUAUUACGCCUU | -1.74 ± 0.12 | -0.241 ± 0.14
GUUAAGCAAUAUUACGUAGA | -3.06 ± 0.16 | -0.537 ± 0.12
CCAGAGCAAUAUUACGCGCU | -2.97 ± 0.24 | -1.89 ± 0.34
AAACAGCAAUAUUACGCAGA | -2.53 ± 0.15 | -1.42 ± 0.11
CAGGAGCAAUAUUACGUCCG | 0.726 ± 0.21 | 0.304 ± 0.29
CGGCAGCAAUAUUACGAGGA | -4.01 ± 0.43 | -2.28 ± 0.26
CUUCAGCAAUAUUACGUACA | – | -2.14 ± 0.5
ACGAAGCAAUAUUACGUAUC | -4.38 ± 0.27 | -2.66 ± 0.22
GCAGAGCAAUAUUACGGACU | -2.18 ± 0.34 | -1.9 ± 0.21
UUGCAGCAAUAUUACGUGAC | -1.55 ± 0.11 | -0.799 ± 0.13
ACACAGCAAUAUUACGCUGC | -2.18 ± 0.16 | -1.14 ± 0.15
UCAAAGCAAUAUUACGAAGC | -3.5 ± 0.33 | -1.84 ± 0.38
GACCAGCAAUAUUACGAUCG | -0.875 ± 0.091 | -0.444 ± 0.1
GACUAGCAAUAUUACGGCCA | -0.241 ± 0.16 | -0.327 ± 0.26
GGACAGCAAUAUUACGUAAC | -0.0173 ± 0.1 | -0.0671 ± 0.14

Sequence | self-splicing fitness (ln) (30 °C) | self-splicing fitness (ln) (37 °C)
AUGAAGCAAUAUUACGAUCC | -0.571 ± 0.11 | 0.455 ± 0.16
AGAGAGCAAUAUUACGCAGG | -2.58 ± 0.13 | -3.21 ± 0.33
UUGGAGCAAUAUUACGGGAG | -4.02 ± 0.39 | -2.62 ± 0.31
AAGCAGCAAUAUUACGAGUG | -2.99 ± 0.1 | -2.69 ± 0.11
GACGAGCAAUAUUACGGUUA | -1.65 ± 0.12 | -0.972 ± 0.1
UACGAGCAAUAUUACGUAGA | -3.47 ± 0.17 | -2.77 ± 0.29
AAGCAGCAAUAUUACGGUAA | -1.25 ± 0.091 | -0.944 ± 0.094
UAGUAGCAAUAUUACGGCUA | 0.21 ± 0.14 | -0.257 ± 0.19
AAGGAGCAAUAUUACGUGGC | -3.79 ± 0.19 | -2.37 ± 0.2
UACGAGCAAUAUUACGCCCC | -2.16 ± 0.44 | –
GCAUAGCAAUAUUACGGGCU | -2.22 ± 0.23 | -0.579 ± 0.17
ACACAGCAAUAUUACGUACA | -1.05 ± 0.059 | -0.954 ± 0.068
AGACAGCAAUAUUACGGUUU | -3.25 ± 0.11 | -1.32 ± 0.082
AGGGAGCAAUAUUACGAGAC | -3.09 ± 0.4 | -2.77 ± 0.36
GUUAAGCAAUAUUACGCACU | -0.8 ± 0.22 | -1.17 ± 0.23
GUGUAGCAAUAUUACGUAAA | -2.96 ± 0.21 | -0.326 ± 0.15
CAGCAGCAAUAUUACGACAG | -0.416 ± 0.073 | 0.533 ± 0.1
GAUGAGCAAUAUUACGACAC | -1.25 ± 0.15 | -0.309 ± 0.16
UGACAGCAAUAUUACGUGCA | -1.06 ± 0.079 | 0.394 ± 0.11

Source: the supplement of paper PMC7877785
